# Test results as given in the RNAGym collection of RNA variant scans (doi:10.7554/elife.90254).
# B1: OR4K15 (parent)
# chain: GUUAACGGUCAUAGGCCAUGGAAACUAGGAGCACCAUUUCGCUGCCAGUGAAGAAAUGAACAAAGAAAAUCUGGGCCAGGCAGGCAUCAAAAGAAAUAGUCUUGCGCUCAACCAGAAAGUCUGUAAUCAUUUUAAGGGUA
# Variants of: B1
# Experiment: self-cleavage, relative activity (ratio to wild type); higher = more cleavage; in vitro, sequencing; the parent is a self-cleaving ribozyme
row,Variant,self-cleavage
1,A11G A110G,0.12
2,A23G G136A,1.39
3,U43A A60G,1.52
4,U108C U122C,0.01
5,U37C U57G,0.5
6,A51U A95G,2
7,A23G A114U,0.07
8,A23G A110U,1.25
9,A82G G106C,0.01
10,A36U C113U,0.02
11,U87A A92G,2.61
12,A36U C107G,0.03
13,A78G G137U,0.25
14,A11U A82G,0.63
15,U97C U100C,2.15
16,A82U C105U,0.01
17,G21A A33U,2.16
18,U37C A68U,1.5
19,C10A A68G,0.85
20,U19C A96U,1.51
21,A52G A117C,0.47
22,A5C A111G,0.16
23,A66G U120C,1.71
24,G15A U70A,0.96
25,A33G U133C,0.88
26,U3A A67U,0.46

row,Variant,self-cleavage
1,A67G A114G,0.49
2,A96G A117G,2.13
3,U108C U133A,0.01
4,C42G,1.62
5,U2G A135U,1.03
6,C40A U124C,0.93
7,U2C A62C,1.39
8,A82C A134G,0.17
9,A94G C113U,0.03
10,U49G A54G,1.61
11,U72A A117G,0.16
12,A89U U103C,1.12
13,G14U A82U,0.13
14,U3A U37C,0.99
15,A54U A82U,0.24
16,A111G U124G,0.01
17,A33G A82U,0.1
18,U9G G119A,1.48
19,U39A U127C,0.28
20,A36C U131C,1.1
21,A23U A60G,1.24
22,A51G A66G,1.5
23,U103A A114U,0.05
24,A11U A118G,0.59
25,G65A U72C,0.21
26,A47G A64G,1.17

row,Variant,self-cleavage
1,G7A A56G,1.78
2,A51G U120G,2.37
3,A54U U108C,0.01
4,U49A C61U,1.38
5,A63G U120C,1.27
6,A92G A135C,0.84
7,A5G G29C,0.82
8,A30C A111G,0.07
9,A114U A140U,0.1
10,U37C A129G,0.32
11,U9A A90G,1.23
12,U49A A90G,0.81
13,A24U A82G,0.41
14,A33U A134G,1.2
15,A56G A129C,1.03
16,U124C A135C,0.06
17,A22G C109U,0
18,A47U A55G,0.6
19,G73A G136U,0.22
20,U2G A89G,0.3
21,G7U A60U,2.4
22,U37C G93U,1.07
23,U38C G41A,1.95
24,A63G U122C,1.16
